Data as given in US20030158387A1 (PHARIS BIOTEC, published 2003).
Read-outs that look alike come from different tables or passages of the source. *: point of attachment. Nonanoyl = CCCCCCCCC(=O)*

B1: HCC-1, residues 6-74 (ligand)
chain: SSRGPYHPSECCFTYTTYKIPRQRIMDYYETNSQCSKPGIVFITKRGHSVCTNPSDKWVQDYIKDMKEN
notes: also called HCC-1[6-74]
B2: NNY-HCC-1[10-74] (nonanoyl-HCC-1[10-74]) (ligand)
chain: Nonanoyl-PYHPSECCFTYTTYKIPRQRIMDYYETNSQCSKPGIVFITKRGHSVCTNPSDKWVQDYIKDMKEN
modifications: ends and bridges not checked
notes: Chemokine compound analog, synthetic
B3: RANTES (ligand, UniProt P13501 24-91, looked up)
chain: SPYSSDTTPCCFAYIARPLPRAHIKEYFYTSGKCSNPAVVFVTRKNRQVCANPEKKWVREYINSLEMS
modifications: ends and bridges not checked; also: 125I-labelled where used as tracer, unlabelled in functional assays
B4: HCC-1[7-74] (ligand)
chain: SRGPYHPSECCFTYTTYKIPRQRIMDYYETNSQCSKPGIVFITKRGHSVCTNPSDKWVQDYIKDMKEN
notes: Synthetic, oxidatively folded
B5: HCC-1[8-74] (ligand)
chain: RGPYHPSECCFTYTTYKIPRQRIMDYYETNSQCSKPGIVFITKRGHSVCTNPSDKWVQDYIKDMKEN
notes: Synthetic, oxidatively folded
B6: HCC-1[10-74] (ligand)
chain: PYHPSECCFTYTTYKIPRQRIMDYYETNSQCSKPGIVFITKRGHSVCTNPSDKWVQDYIKDMKEN
notes: Synthetic, oxidatively folded
B7: HCC-1[12-74] (ligand)
chemokine chain: HPSECCFTYTTYKIPRQRIMDYYETNSQCSKPGIVFITKRGHSVCTNPSDKWVQDYIKDMKEN
notes: Not in the list MOLECULES; also called PHC-2
B8: processed human chemokine PHC-1 (HCC-1[9-74]) (ligand)
chain: GPYHPSECCFTYTTYKIPRQRIMDYYETNSQCSKPGIVFITKRGHSVCTNPSDKWVQDYIKDMKEN
notes: Purified from human hemofiltrate or made by tryptic digestion of HCC-1 (1-74)
B9: HCC-1[11-74] (ligand)
chain: YHPSECCFTYTTYKIPRQRIMDYYETNSQCSKPGIVFITKRGHSVCTNPSDKWVQDYIKDMKEN
notes: Synthetic, oxidatively folded

Columns and labels:
[1] = molecular target: T1, chemokine receptor 5 (CCR5) (human, UniProt P51681 1-352); assay: competition radioligand binding, membranes of CHO-K1 cells expressing CCR5, tracer [125I]-MIP-1 beta; mean ± SEM
T1 construct: whole, on cells

[2] = molecular target: T1, chemokine receptor 5 (CCR5); assay: cell-based or functional assay
[3] = molecular target: T1, chemokine receptor 5 (CCR5); assay: competition radioligand binding, membranes of CHO-K1 cells expressing CCR5, tracer [125I]-MIP-1 beta
[4] = molecular target: T1, chemokine receptor 5 (CCR5); assay: cell-based or functional assay; remark: listed apart in the source
[5] = molecular target: T1, chemokine receptor 5 (CCR5); assay: competition radioligand binding, membranes of CHO-K1 cells expressing CCR5, tracer [125I]-MIP-1 beta; remark: listed apart in the source
[6] = molecular target: T1, chemokine receptor 5 (CCR5); assay: cell-based or functional assay; remark: listed apart in the source
chemokine receptor CCR3 [7] = molecular target: T2, chemokine receptor CCR3 (UniProt P51677 1-355, limits assumed); assay: competition with 125I-Eotaxin for binding to CCR3
T2 construct: whole, on cells
T2 sequence (looked up): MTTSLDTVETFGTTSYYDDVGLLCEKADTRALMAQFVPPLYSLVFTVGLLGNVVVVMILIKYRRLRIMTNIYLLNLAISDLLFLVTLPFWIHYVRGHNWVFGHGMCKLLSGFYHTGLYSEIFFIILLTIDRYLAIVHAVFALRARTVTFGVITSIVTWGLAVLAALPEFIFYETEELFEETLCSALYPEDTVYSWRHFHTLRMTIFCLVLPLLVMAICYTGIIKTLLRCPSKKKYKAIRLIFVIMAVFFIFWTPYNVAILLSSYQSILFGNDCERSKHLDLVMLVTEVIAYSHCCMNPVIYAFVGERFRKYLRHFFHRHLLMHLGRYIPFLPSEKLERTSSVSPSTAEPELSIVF
Protocol: (§1) For determination of its binding properties, CHO-K1 cells were used which were stably transfected with the chemokine receptors CCR1, CCR3, CCR5. Therefore, crude membrane extracts prepared from the CHO-K1 cell lines expressing the various GPC were used in radioligand binding assays. Competition binding assays were performed in Minisorp tubes (Nunc, Roskilde, Denmark) in a total volume of 100 μl containing 0.11 nM iodinated ligand as tracer, variable concentrations of competitors and defined amount of membranes. Total binding was measured in the absence of competitor and non-specific binding was measured with a 100-fold excess, of unlabelled ligand. Samples were incubated for 90 minutes at 25° C. then filtered through GF/B filters presoaked in 0.3% polyethylenenimine. Filters were counted in a gamma scintillation counter (Packard). Binding parameters were determined with the PRISM software (Graphpad software, San Diego, Calif.) using non-linear regression applied to a one site competition model.

chemokine receptor CCR3 [8] = molecular target: T2, chemokine receptor CCR3; assay: cell-based or functional assay
chemokine receptor CCR3 [9] = molecular target: T2, chemokine receptor CCR3; assay: competition with 125I-Eotaxin, membranes of CHO-K1 cells expressing CCR3, filtration, one site competition model; 125I-Eotaxin tracer, CCR3 membranes
Protocol: as §1

[10] = molecular target: T1, chemokine receptor 5 (CCR5); assay: competition with 125I-MIP-1 alpha, membranes of CHO-K1 cells expressing CCR5, filtration, one site competition model; 125I-MIP 1-alpha tracer, CCR5 membranes
Protocol: as §1

[11] = molecular target: T1, chemokine receptor 5 (CCR5); assay: competition with 125I-MIP-1 alpha for binding to CCR5
Protocol: as §1

T1 sequence (P51681 whole entry): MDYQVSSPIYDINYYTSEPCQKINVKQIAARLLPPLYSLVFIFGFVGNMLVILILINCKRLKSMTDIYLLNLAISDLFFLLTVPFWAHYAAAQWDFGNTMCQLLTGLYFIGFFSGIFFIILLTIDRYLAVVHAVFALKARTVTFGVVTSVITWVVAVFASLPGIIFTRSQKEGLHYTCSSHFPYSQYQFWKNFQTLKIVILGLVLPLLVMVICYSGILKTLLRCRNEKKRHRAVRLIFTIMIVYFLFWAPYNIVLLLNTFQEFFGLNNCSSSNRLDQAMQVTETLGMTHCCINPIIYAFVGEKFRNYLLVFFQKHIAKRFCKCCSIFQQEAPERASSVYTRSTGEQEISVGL

| Binder | IC50 [1] [nM] | EC50 (aequorin luminescence, CHO-K1 cells expressing CCR5) [2] [nM] | IC50 (read off the curve) [3] [nM] | EC50 (read off the curve) [4] [nM] | IC50 (read off the curve) [5] [nM] | EC50 (read off the curve) [6] [nM] | other results |
| --- | --- | --- | --- | --- | --- | --- | --- |
| B1 | 21.6 | 402 | ~20 | – | – | – | – |
| B2 | 0.0343 | 0.453 | – | ~1 | ~0.04 | – | – |
| B3 | – | 8.48 | – | ~10 | – | ~10 | – |
| B4 | 7.72 | 165 | – | – | – | – | – |
| B5 | 5.9 | 177 | – | – | – | – | – |
| B6 | 0.065 | 3.48 | ~0.1 | ~6 | ~0.1 | ~6 | – |
| B7 | 4.29 | – | – | – | – | – | – |
| B8 | 0.0961 | 6.45 | ~0.1 | ~7 | ~0.1 | ~7 | Ki (chemokine receptor CCR3 [7]): 2.7 nM; EC50 of receptor activation (aequorin assay) (chemokine receptor CCR3 [8]): 78 nM; IC50 (chemokine receptor CCR3 [9]): 2.7 nM; IC50 [10]: 0.04 nM; Ki [11]: 0.04 nM |
| B9 | 1.2 | 224 | – | – | – | – | – |
